Reference: article PMC5750232, “RAD54 N-terminal domain is a DNA sensor that couples ATP hydrolysis with branch migration of Holliday junctions” (Nature Communications, 2018)

How the values were obtained:
RAD54 1-142 (NTD) [1] = target: T1, RAD54 1-142 (NTD) (human, UniProt Q92698 1-142); test: competition EMSA; conditions: vs 30 nM 32P-PX junction, 300 nM protein, 5 mM Mg2+, 2 mM ATP, 25 mM Tris-acetate pH 7.5, 5 mM Mg acetate, 100 ug/ml BSA, 2 mM DTT, 10% glycerol, 4 C, 45 min, 30 nM PX junction, 6% native PAGE in 0.25x TBE, scale: fold excess, PX complexes stable at 150-200-fold excess of ss- or dsDNA
T1 sequence: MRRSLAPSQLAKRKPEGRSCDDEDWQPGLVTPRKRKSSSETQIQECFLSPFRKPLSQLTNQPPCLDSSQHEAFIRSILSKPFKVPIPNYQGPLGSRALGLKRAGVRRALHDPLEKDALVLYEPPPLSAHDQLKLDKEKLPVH

RAD54 156-747 [2] = target: T2, RAD54 156-747 (human, UniProt Q92698 156-747); test: competition EMSA; conditions: vs 30 nM 32P-PX junction, 100 nM protein, 5 mM Mg2+, 2 mM ATP, 25 mM Tris-acetate pH 7.5, 5 mM Mg acetate, 100 ug/ml BSA, 2 mM DTT, 10% glycerol, 4 C, 45 min, 30 nM PX junction, 6% native PAGE in 0.25x TBE, scale: fold excess of competitor giving 50% dissociation of PX complexes
T2 sequence: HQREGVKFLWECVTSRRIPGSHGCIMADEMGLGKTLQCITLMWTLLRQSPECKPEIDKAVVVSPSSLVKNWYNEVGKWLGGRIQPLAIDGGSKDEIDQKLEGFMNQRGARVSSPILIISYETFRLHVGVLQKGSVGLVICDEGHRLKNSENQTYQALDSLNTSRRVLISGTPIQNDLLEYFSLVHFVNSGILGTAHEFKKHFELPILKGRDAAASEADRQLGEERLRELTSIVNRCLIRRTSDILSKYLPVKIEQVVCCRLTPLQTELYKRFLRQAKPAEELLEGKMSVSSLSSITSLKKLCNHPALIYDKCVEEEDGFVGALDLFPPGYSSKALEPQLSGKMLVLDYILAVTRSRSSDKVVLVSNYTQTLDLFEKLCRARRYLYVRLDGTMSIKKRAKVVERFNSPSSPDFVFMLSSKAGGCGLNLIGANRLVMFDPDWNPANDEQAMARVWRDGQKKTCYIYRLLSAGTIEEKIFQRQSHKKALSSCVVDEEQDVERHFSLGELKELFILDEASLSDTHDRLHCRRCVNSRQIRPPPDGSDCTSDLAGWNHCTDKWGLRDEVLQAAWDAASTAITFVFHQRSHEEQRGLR

[3] = target: the molecule itself; test: cross-linking; BMH (25 µM) cross-linking of the protein (1.2 µM) without DNA; 20 mM HEPES-KOH pH 7.5, 5 mM MgCl2, 5 mM EDTA, 40 mM KCl, 25 °C; 15% SDS-PAGE, silver staining
RAD54 1-142 (NTD) [4] = target: T1, RAD54 1-142 (NTD); test: competition EMSA; vs 30 nM 32P-PX junction; 300 nM protein; 5 mM Mg2+, 2 mM ATP; 25 mM Tris-acetate pH 7.5, 5 mM Mg acetate, 100 ug/ml BSA, 2 mM DTT, 2 mM ATP, 10% glycerol, 4 C, 45 min; 30 nM PX junction; 6% native PAGE in 0.25x TBE; conditions: protein: recombinant; tags: Sumo-His, cleaved; four-way junction, 4 strands
RAD54 1-142 (NTD) [5] = target: T1, RAD54 1-142 (NTD); test: EMSA; distinct complexes from 0.1 uM protein; 5 mM Mg2+, 2 mM ATP; 25 mM Tris-acetate pH 7.5, 5 mM Mg acetate, 100 ug/ml BSA, 2 mM DTT, 2 mM ATP, 10% glycerol, 4 C, 45 min; 30 nM PX junction; 6% native PAGE in 0.25x TBE; conditions: protein: recombinant; tags: Sumo-His, cleaved; partial X junction with one ssDNA arm, 4 strands
RAD54 156-747 [6] = target: T2, RAD54 156-747; test: EMSA; 100 nM protein; 5 mM Mg2+, 2 mM ATP; 25 mM Tris-acetate pH 7.5, 5 mM Mg acetate, 100 ug/ml BSA, 2 mM DTT, 2 mM ATP, 10% glycerol, 4 C, 45 min; 30 nM PX junction; 6% native PAGE in 0.25x TBE; conditions: protein: recombinant; tags: Sumo-His, cleaved; partial X junction with one ssDNA arm, 4 strands

dsDNA (oligos 1/2)
binding signal (RAD54 1-142 (NTD) [1]): > 150

ssDNA (oligo 2)
binding signal (RAD54 1-142 (NTD) [1]): > 150
binding signal (RAD54 156-747 [2]): 4

B1: RAD54_(1–142) NTD (domain or fragment, human, UniProt Q92698 1-142, looked up)
chain: MRRSLAPSQLAKRKPEGRSCDDEDWQPGLVTPRKRKSSSETQIQECFLSPFRKPLSQLTNQPPCLDSSQHEAFIRSILSKPFKVPIPNYQGPLGSRALGLKRAGVRRALHDPLEKDALVLYEPPPLSAHDQLKLDKEKLPVH
notes: cloned in pETHSUL; Sumo-His tag cleaved off by Sumo hydrolase; also called RAD54 NTD; source: E. coli Rosetta 2 (DE3), purified (HiTrap Ni2+, Sephacryl S-200 HR, Resource S)
stoichiometry N [3]: 2

B2: RAD54_(1–142) ^33AAAA36 (domain or fragment, human, UniProt Q92698 1-142, looked up)
chain: MRRSLAPSQLAKRKPEGRSCDDEDWQPGLVTPAAAASSSETQIQECFLSPFRKPLSQLTNQPPCLDSSQHEAFIRSILSKPFKVPIPNYQGPLGSRALGLKRAGVRRALHDPLEKDALVLYEPPPLSAHDQLKLDKEKLPVH
notes: source: E. coli Rosetta 2 (DE3), purified (HiTrap Ni2+, Sephacryl S-200 HR, Resource S)
stoichiometry N [3]: 2

B3: RAD54_(1–142) ^S49E (domain or fragment, human, UniProt Q92698 1-142, looked up)
chain: MRRSLAPSQLAKRKPEGRSCDDEDWQPGLVTPRKRKSSSETQIQECFLEPFRKPLSQLTNQPPCLDSSQHEAFIRSILSKPFKVPIPNYQGPLGSRALGLKRAGVRRALHDPLEKDALVLYEPPPLSAHDQLKLDKEKLPVH
notes: as for B2
stoichiometry N [3]: 2

B4: X-junction (174/175/176/177) (structured_DNA)
DNA 1: GACGCTGCCGAATTCTACCAGTGCCTTGCTAGGACATCTTTGCCCACCTGCAGGTTCACCC
DNA 2: TGGGTGAACCTGCAGGTGGGCAAAGATGTCCTAGCAATGTAATCGTCAAGCTTTATGCCGTT
DNA 3: CAACGGCATAAAGCTTGACGATTACATTGCTAGGACATGCTGTCTAGAGGATCCGACTATCGA
DNA 4: ATCGATAGTCGGATCCTCTAGACAGCATGTCCTAGCAAGGCACTGGTAGAATTCGGCAGCGT
binding signal (RAD54 1-142 (NTD) [4]): ~6 fold preference for PX junction over HJ (X-junction)

B5: non-mobile PX junction (174/175/176/181) (structured_DNA)
DNA 1: GACGCTGCCGAATTCTACCAGTGCCTTGCTAGGACATCTTTGCCCACCTGCAGGTTCACCC
DNA 2: TGGGTGAACCTGCAGGTGGGCAAAGATGTCCTAGCAATGTAATCGTCAAGCTTTATGCCGTT
DNA 3: CAACGGCATAAAGCTTGACGATTACATTGCTAGGACATGCTGTCTAGAGGATCCGACTATCGA
DNA 4: TCGATAGTCGGATCCTCTAGACAGC
binding result (RAD54 1-142 (NTD) [5]): binds
binding result (RAD54 156-747 [6]): binds
